According to patent US20250236663A1 (NEURACLE SCIENCE, published 2025):
One block for each binder: values may come before it.

How the values were obtained:
[1] = molecular target: T1, FAM19A5-M5; assay: ELISA on phage-displayed FAM19A5 mutants; y axis without label; no blank in the panel
T1 construct: also called FAM19A5 mutant M5
T1 FAM19A5 mutant: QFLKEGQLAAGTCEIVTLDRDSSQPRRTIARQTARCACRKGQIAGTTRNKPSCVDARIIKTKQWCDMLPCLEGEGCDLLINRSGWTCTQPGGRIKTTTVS

[2] = molecular target: T2, FAM19A5-M3; assay: as above
T2 construct: also called FAM19A5 mutant M3
T2 FAM19A5 mutant: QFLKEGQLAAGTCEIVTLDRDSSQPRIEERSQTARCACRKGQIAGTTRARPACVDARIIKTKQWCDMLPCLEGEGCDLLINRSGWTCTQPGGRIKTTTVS

[3] = molecular target: T3, FAM19A5 mutant M7 (human); assay: as above
T3 construct: FAM19A5 with region 7 replaced by the consensus of FAM19A1-4; The entry already carries the changes
T3 chain: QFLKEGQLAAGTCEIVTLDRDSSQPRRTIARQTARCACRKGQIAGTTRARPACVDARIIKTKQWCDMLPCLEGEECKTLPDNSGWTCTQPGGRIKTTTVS

[4] = molecular target: T4, FAM19A5 mutant M6 (human); assay: as above
T4 construct: FAM19A5 with region 6 replaced by the consensus of FAM19A1-4; The entry already carries the changes
T4 chain: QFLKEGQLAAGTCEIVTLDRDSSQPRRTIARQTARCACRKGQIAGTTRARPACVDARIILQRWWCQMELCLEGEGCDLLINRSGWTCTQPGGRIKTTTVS

[5] = molecular target: T5, FAM19A5-M4; assay: as above
T5 construct: also called FAM19A5 mutant M4
T5 FAM19A5 mutant: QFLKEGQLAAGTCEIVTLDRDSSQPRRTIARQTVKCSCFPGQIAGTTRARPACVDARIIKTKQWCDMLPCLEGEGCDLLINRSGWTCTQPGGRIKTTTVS

[6] = molecular target: T6, FAM19A5-M1; assay: as above
T6 construct: also called FAM19A5 mutant M1
T6 FAM19A5 mutant: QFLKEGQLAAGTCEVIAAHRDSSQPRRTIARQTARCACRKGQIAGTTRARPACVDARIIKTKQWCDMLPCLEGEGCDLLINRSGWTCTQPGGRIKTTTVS

[7] = molecular target: T7, FAM19A5-M2; assay: as above
T7 construct: also called FAM19A5 mutant M2
T7 FAM19A5 mutant: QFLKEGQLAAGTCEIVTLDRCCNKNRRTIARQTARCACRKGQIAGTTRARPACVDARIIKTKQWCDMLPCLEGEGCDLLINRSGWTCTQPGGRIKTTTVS

[8] = molecular target: T8, FAM19A5 mutant M8 (human); assay: ELISA on phage-displayed FAM19A5 mutants; y axis without label
T8 construct: FAM19A5 with region 8 replaced by the consensus of FAM19A1-4; The entry already carries the changes
T8 chain: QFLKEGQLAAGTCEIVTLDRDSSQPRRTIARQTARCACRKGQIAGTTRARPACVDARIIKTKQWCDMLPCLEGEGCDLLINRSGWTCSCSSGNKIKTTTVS

[9] = molecular target: T4, FAM19A5 mutant M6; assay: ELISA on phage-displayed FAM19A5 mutants; y axis without label; no blank in the panel, lowest bars about 0.05
[10] = molecular target: T1, FAM19A5-M5; assay: as above
[11] = molecular target: T9, FAM19A5 fragment 5 mutant peptide F5-5 (#5) (human); assay: ELISA on the coated F5 mutant peptide
T9 construct: The entry already carries the alanine substitution and Ser for Cys; also called mutant peptide #5
T9 peptide: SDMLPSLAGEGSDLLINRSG
Experimental: (§1) Overlapping peptide fragments (F1-F6, see FIG. 9) of the human FAM19A5 protein were synthesized and conjugated to BSA. Binding of the different anti-FAM19A5 antibodies to the BSA-conjugated peptide fragments F1-F6 was determined by Western blot analysis or ELISA assay. For the Western blot analysis, BSA-conjugated FAM19A5 fragments F1-F6 were separated by SDS polyacrylamide gel electrophoresis and transferred to a nitrocellulose membrane by the standard procedure. The membrane was incubated with the anti-FAM19A5 antibody (e.g., 1-65, 2 μg/ml, 1-65-scFv-rabbit Fc-SSS), and the antigen-antibody complexes were detected with the appropriate secondary antibody conjugated with horse-radish peroxidase (anti-rabbit IgG (Fc specific)-HRP, 1:4000 dilution). For the ELISA assay, the following protocol was used. FAM19A5 fragment F1-F6 (diluted to 1 μg/mL in 50 mM carbonate buffer (Biosesang) or to 20 μg/mL for high concentration analysis) were used to coat the wells of 96-well immuno plates (Thermo Scientific) (100 μL/well) overnight at 4° C. and then subsequently washed twice in 1×PBS. The plates were then blocked with the blocking buffer (100 μL/well) for 1 hour at room temperature. During the 1-hour incubation, the relevant anti-FAM19A5 antibodies were diluted to 1 μg/mL (or 20 μg/mL for high concentration analysis) in the diluent buffer. Once the plates were washed (2× using 1×PBS), the diluted anti-FAM19A5 antibodies were added to the appropriate wells, and the plates were incubated at room temperature for 1 hour. The plates were subsequently washed for a total of five times using the washing buffer. Next, the ODP substrate (prepared by dissolving one ODP tablet (O-phenylenediamine Dihydrochloride, Thermo) into 9 mL of sterilized deionized water and 1 mL of 10× stable Peroxide Stable buffer (Theromo)) was added to each of the wells, and the color change reaction was allowed to occur for 10 minutes. This reaction was stopped by adding 100 μL of 2N H2SO4 (Daejung) to the wells. The absorption value of each of the wells was detected at 492 nm using a 96-well microplate reader (Molecular Device).
(§2) Next, to identify the specific amino acid residues within the epitope fragment F5 that the 1-65 and P2-C12 antibodies bind to, different amino acid residues of the F5 fragment were replaced with alanine as shown in Table 9 (below).

[12] = molecular target: T10, FAM19A5 fragment 5 mutant peptide F5-2 (#2) (human); assay: ELISA on the coated F5 mutant peptide
T10 construct: The entry already carries the alanine substitution and Ser for Cys; also called mutant peptide #2
T10 sequence (peptide, as listed by the source mutant): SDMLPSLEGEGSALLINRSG
Experimental: as §1, §2

[13] = molecular target: T11, FAM19A5 fragment 5 mutant peptide F5-3 (#3) (human); assay: ELISA on the coated F5 mutant peptide
T11 construct: The entry already carries the alanine substitution and Ser for Cys; also called mutant peptide #3
T11 sequence (peptide, as listed by the source mutant): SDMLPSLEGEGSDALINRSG
Experimental: as §1, §2

[14] = molecular target: T12, FAM19A5 fragment 5 mutant peptide F5-1 (#1) (human); assay: ELISA on the coated F5 mutant peptide
T12 construct: The entry already carries the alanine substitution and Ser for Cys; also called mutant peptide #1
T12 peptide: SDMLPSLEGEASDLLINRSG
Experimental: as §1, §2

[15] = molecular target: T13, FAM19A5 fragment 5 mutant peptide F5-6 (#6) (human); assay: ELISA on the coated F5 mutant peptide
T13 construct: The entry already carries the alanine substitution and Ser for Cys; also called mutant peptide #6
T13 sequence (peptide, as listed by the source mutant): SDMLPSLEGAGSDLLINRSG
Experimental: as §1, §2

[16] = molecular target: T14, FAM19A5 fragment 5 mutant peptide F5-8 (#8) (human); assay: ELISA on the coated F5 mutant peptide
T14 construct: The entry already carries the alanine substitution and Ser for Cys; also called mutant peptide #8
T14 peptide: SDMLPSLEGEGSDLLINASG
Experimental: as §1, §2

[17] = molecular target: T15, FAM19A5 fragment 5 mutant peptide F5-4 (#4) (human); assay: ELISA on the coated F5 mutant peptide
T15 construct: The entry already carries the alanine substitution and Ser for Cys; also called mutant peptide #4
T15 sequence (peptide, as listed by the source mutant): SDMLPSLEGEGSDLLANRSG
Experimental: as §1, §2

[18] = molecular target: T4, FAM19A5 mutant M6; assay: ELISA on phage-displayed FAM19A5 mutants; y axis without label

B1: Anti-FAM19A5 (15A9) (antibody, V domains shown)
VH: QVQLQESGPGLVKPSETLSLTCTVSGGSISSYYWSWIRQPPGKGLEWIGYIYPSGSTNYNPSLKSRVTISVDTSKNQFSLNLKSVTAVDTAVYYCARVNPFGYYYAMDVWGQGTTVTVSS
VL: DIQMTQSPSSLSASVGDRITISCRASQSISTSLNWYQQTPGKAPRLLIYGASTLQSGVPSRFSGGGSGTDFSLTITSLQPEDFATYYCQESASIPRTFGQGTKLDIK
notes: Only variable domains are tied to the name
- binding result [1]: binds

B2: Anti-FAM19A5 (13F7) (antibody, V domains shown)
VH: QVQLQEWGAGLLKPSETLSLTCAINAESFNGYSWTWIRQTPGKGLEWIGEISHFGSANYNPSLKSRATISADKSKNQFSLKLTSVTAVDTAVYYCARALRGTYSRFYYGMDVWGQGTTVTVSS
VL: DIVMTQTPLSLPVAPGEPASISCRSSQSLLHSNGYNYLDWYVQKPGQPPQLLIYLGSNRASGVPDRFSGSGSGTDFTLKISRVEAEDVGVYYCMQARQTPLTFGGGTKVEIK
notes: as for B1
- binding result [2]: binds
- binding result [3]: binds
- binding result [4]: binds
- binding result [5]: binds
- binding result [6]: binds
- binding result [7]: binds
- binding result [1]: binds
- binding result [8]: no binding

B5: Anti-FAM19A5 (P2-C12) (antibody, V domains shown)
VH: QSLEESGGRLVTPGTPLTLTCTVSGFSLSTYAVTWVRQAPGKGLEWIGYINWRGGTSYANWAKGRFTISKTSSTTVDLKMTSPTTEDTATYFCARDASSGAAFGSYGMDPWGPGTLVTVSS
VL: ELDMTQTPSSVSAAVGGTVTIKCQASQSISSYLSWYQQKPGQPPKLLIYEASKLASGVPSRFSGSGYGTEFTLTISDLECADAATYYCQQGYSSTNVWNAFGGGTNVEIK
notes: Only variable domains are tied to the name; also called anti-FAM19A5 antibody P2-C12
- O.D (492nm) [11]: 3.49
- O.D (492nm) [12]: 3.65
- O.D (492nm) [13]: 3.84
- O.D (492nm) [14]: 0.056
- binding result [14]: no binding
- O.D (492nm) [15]: 0.095
- binding result [15]: no binding
- O.D (492nm) [16]: 0.1
- binding result [16]: no binding
- O.D (492nm) [17]: 3.86
- binding result [10]: binds
- binding result [18]: no binding

Other lines, results leading:

- binding result [9]: binds
- binding result [10]: binds
B3: Anti-FAM19A5 (P1-F02) (antibody, V domains shown)
VH: QSLEESGGRLVTPGTPLTLTCTASGFSLSNYYMGWVRQAPGEGLEWIGIIYASGSTYYASWAKGRFTISKTSTTVDLKMTSLTTEDTATYFCARIDIGVGDYGWAYDRLDLWGQGTLVTVSS
VL: ELDMTQTPPSLSASVGETVRIRCLASEDIYSGISWYQQKPGKPPTLLIYGASNLESGVPPRFSGSGSGTDYTLTIGGVQAEDAATYYCLGGYSYSSITFGAGTNVEIK
notes: as for B1

- binding result [9]: binds
- binding result [10]: binds
B4: Anti-FAM19A5 (P2-F07) (antibody, V domains shown)
VH: QSLEESGGRLVTPGTPLTLTCTASGFSLSSYYMNWVRQAPGKGLEWIGIIYPSGTTYYAGWAKGRFTISKTSTTVDLKITSPTSEDTATYFCARTVSGYFDIWGPGTLVTVSL
VL: ELDLTQTPPSLSASVGGTVTINCLASEDIYSALAWYQQKPGKPPTLLISGTSNLESGVPPRFSGSGSGTDYTLTIGGVQAEDAATYFCQGYSSYPLTFGAGTNVEIK
notes: as for B1

- binding result [9]: binds
- binding result [10]: binds
B6: Anti-FAM19A5 (P2-A01) (antibody, V domains shown)
VH: QEQLVESGGRLVTPGTPLTLSCTASGFFLSGYYMSWVRQAPGKGLEWIGIIYPSGSTDYASWAKGRFTISKTSTTVDLKITTPTTEDTATYFCARVAGYVGYGYETFFDIWGPGTLVTVSL
VL: ELVMTQTPPSLSASVGETVRIRCLASEDIYSGISWYQQKPGKPPTLLIYGASNLESGVPPRFSGSGSGSDYTLTIGGVQAEDAATYYCLGGVTYSSTGTHLTFGAGTNVEIK
notes: as for B1

- binding result [9]: binds
- binding result [10]: binds
B7: Anti-FAM19A5 (P1-A08) (antibody, V domains shown)
VH: QSLEESGGRLVTPGTPLTLTCTASGFSLSTYYMSWVRQAPGKGLEWIGIVYPSGTTYYANWAKGRFTISTASTTVDLMITSPTTEDTATYFCARGDSFGYGLWGPGTLVTVSS
VL: ELVLTQSPSVQVNLGQTVSLTCTADTLSRSYASWYQQKPGQAPVLLIYRDTSRPSGVPDRFSGSSSGNTATLTISGAQAGDEADYYCATSDGSGSNYQYVFGGGTQLTVT
notes: as for B1

- binding result [10]: binds
B8: Anti-FAM19A5 (P2-F11) (antibody, V domains shown)
VH: QEQLVESGGRLVTPGTTLTLTCTVSGFSLSSYGVSWVRQAPGKGLEWIGYIANNYNPHYASWAKGRFTISKTSSTTVDLKMTSLTTEDTATYFCARDNYGMDPWGPGTLVTVSS
VL: ELDLTQTPSSVSAAVGGTVTINCQASQSVYNNKNLAWYQQKPGQPPKLLIYAASTLASGVSSRFKGSGSGTQFTLTISDVQCDDAATYYCQGEFSCSSADCNAFGGGTELEIL
notes: as for B1
